A short description of the series: label from the status in PepcDB records.
As for “MKVTQNENLKLAQRGAFLSLVIYIILSIAKYMTGYVYDSAAVRADALNNMTDILVSVAVIVGLKISIKPADQNHPYGHLKSENISTLLVSFIIMFVGIQVIIENFPRLFTHDSHIPNFITIIISMISGLVMLCVFAINYRLSKRTKSSSLKSAAKDNLSDSLVSIGTAIGLMFTQIGFPIIDIILANILGLLIVYTGFGIFKESIFTLSDGFNEQDLEEYRLDILEVEDVIDVNNIKGRYHGSSIFIDVTIVVDPYLSLYEAHQICDKVEIHLHNKGISSVYVHPEPYTTKDEVK”, the protein production result is “failed”.
Under “MIKGTGHMIVNIANDRGMSIDSIRKTIKESVLIAYKKYFGSNENAFIKFDDDTGDLSVYAKKKIVKEVKDSLLEILEKDISKENIVEGDYAYIEINPKVFDRLSIQVAKQRTKNDLQGIEDNEILSEFKSKLNKVVIGYVQQNRNGDLYVNLGLEHHHHHH” stands “not failed”; under “MPVDAKTKYKAKKIKIVFFDIDDTLRVKKTGYIPESIKAVFKGLKEKGILTGIATGRGYYGVVEEILDLEPDYFVTINGTYVINRKGEEIYNQPLAREVTEAFVAWCKEIGIAWGFAGKDKPVVSERSELIDDAIVPIYGICDVEPDFHLTNDVYQMWTFAENNGDLKLPEELAAHVRLVPWHEHSSDVVATGISKASGVGHVLEHENLTPVNAMMFGDGPNDKEIFDYVGLKIAMGNATPELKAKADYVTGTVEEDGIFNALEELGLVEKELHFPQLDLDTVEGPVATIKTNHGDLVIKLFPDHAPLAVTNFVNLAKSGYYDGVIFHRIIKDFMIQGGDPTGTGMGGESSFGGSFQDEFSEELYNLRGALSMANAGPDTNGSQFFIVQAPEIPYAKKELERGGWPAPIAEAYAENGGTPHLDRRHTVFGHLVDEASYKVLDEIANVEVGTQDKPLEEVVIETIEVTDLEHHHHHH”, “not failed”.
Take “MGRLVSLLPSATDLIFELGLGEQLLGVSHCCDHPGAASLPVLTRSIIGSDLPQAEIDRAVSEAVRAGRALYTVDGPLLDRLRPDLVVTQGVCEVCAVTPGTVAEAVRFLPGCLPAEQVLSLEGKTFAGILADLRALARAAGLEHHHHHH”: the protein production entry is “failed”.
Consider “MRLLAKIICLMLWAICVAEDCNELPPRRNTEILTGSWSDQTYPEGTQAIYKCRPGYRSLGNVIMVCRKGEWVALNPLRKCQKRPCGHPGDTPFGTFTLTGGNVFEYGVKAVYTCNEGYQLLGEINYRECDTDGWTNDIPICEVVKCLPVTAPENGKIVSSAMEPDREYHFGQAVRFVCNSGYKIEGDEEMHCSDDGFWSKEKPKCVEISCKSPDVINGSPISQKIIYKENERFQYKCNMGYEYSERGDAVCTESGWRPLPSCEEKSCDNPYIPNGDYSPLRIKHRTGDEITYQCRNGFYPATRGNTAKCTSTGWIPAPRCTLKPCDYPDIKHGGLYHENMRRPYFPVAVGKYYSYYCDEHFETPSGSYWDHIHCTQDGWSPAVPCLRKCYFPYLENGYNQNYGRKFVQGKSIDVACHPGYALPKAQTTVTCMENGWSPTPRCIRVKTCSKSSIDIENGFISESQYTYALKEKAKYQCKLGYVTADGETSGSITCGKDGWSAQPTCIKSCDIPVFMNARTKNDFTWFKLNDTLDYECHDGYESNTGSTTGSIVCGYNGWSDLPICYERECELPKIDVHLVPDRKKDQYKVGEVLKFSCKPGFTIVGPNSVQCYHFGLSPDLPICKEQVQSCGPPPELLNGNVKEKTKEEYGHSEVVEYYCNPRFLMKGPNKIQCVDGEWTTLPVCIVEESTCGDIPELEHGWAQLSSPPYYYGDSVEFNCSESFTMIGHRSITCIHGVWTQLPQCVAIDKLKKCKSSNLIILEEHLKNKKEFDHNSNIRYRCRGKEGWIHTVCINGRWDPEVNCSMAQIQLCPPPPQIPNSHNMTTTLNYRDGEKVSVLCQENYLIQEGEEITCKDGRWQSIPLCVEKIPCSQPPQIEHGTINSSRSSQESYAHGTKLSYTCEGGFRISEENETTCYMGKWSSPPQCEGLPCKSPPEISHGVVAHMSDSYQYGEEVTYKCFEGFGIDGPAIAKCLGEKWSHPPSCIKTDCLSLPSFENAIPMGEKKDVYKAGEQVTYTCATYYKMDGASNVTCINSRWTGRPTCRDTSCVNPPTVQNAYIVSRQMSKYPSGERVRYQCRSPYEMFGDEEVMCLNGNWTEPPQCKDSTGKCGPPPPIDNGDITSFPLSVYAPASSVEYQCQNLYQLEGNKRITCRNGQWSEPPKCLHPCVISREIMENYNIALRWTAKQKLYSRTGESVEFVCKRGYRLSSRSHTLRTTCWDGKLEYPTCAKR”, for which the protein production entry was “failed”.
“MKGWKRNLYILVVCQFLVVSAMTMIIPFLPLYLQELGVTDPSEVSLWAGIIFAANFLTAFLFSPLWSRLADRYGRKMMILRSGFGMALIIGLTGFAQGPLSLLCLRLLNGVISGFIPASIGLVATNTPKEKAGYALGFLQAGAVSGGICGPLIGGIMAQAFGYRMIFFLTGLCIFIAALVVLLFVNEQFTPNPKEEKTNTWGEFKKITAIRPIFSLYVVVFLIQFAVMGVNPLISLFVEELVSGVNVALFAGLAISATGFANMLSSMQLGKLSDKAGAHHVLFFCLLGTVIFMIPQAFVQQLWQLIVLRFFVGLSLGGLLPAANALVRMHAPKGMESRTYGFSTSALYLGNMVGPTVGGAVVATVGIRGLFLISAFTLLLTVWIVKGKVMPASDKQFRYEQNERKIASS”: the protein production result is on record as “failed”.
Turning to “MQTACQAVQHQRGRRQYNKLRNLLKDARHDCILFANEFQQCCYLPRERGESMEKWQTRSIYNAAVWYYHHCQDRMPIVMVTEDEEAIQQYGSETEGVFVITFKNYLDNFWPDLKAAHELCDSILQSRRERENESQESHGKEYPEHLPLEVLEAGIKSGRYIQGILNVNKHRAQIEAFVRLQGASSKDSDLVSDILIHGMKARNRSIHGDVVVVELLPKNEWKGRTVALCENDCDDKASGESPSEPMPTGRVVGILQKNWRDYVVTFPSKEEVQSQGKNAQKILVTPWDYRIPKIRISTQQAETLQDFRVVVRIDSWESTSVYPNGHFVRVLGRIGDLEGEIATILVENSISVIPFSEAQMCEMPVNTPESPWKVSPEEEQKRKDLRKSHLVFSIDPKGCEDVDDTLSVRTLNNGNLELGVHIADVTHFVAPNSYIDIEARTRATTYYLADRRYDMLPSVLSADLCSLLGGVDRYAVSIMWELDKASYEIKKVWYGRTIIRSAYKLFYEAAQELLDGNLSVVDDIPEFKDLDEKSRQAKLEELVWAIGKLTDIARHVRAKRDGCGALELEGVEVCVQLDDKKNIHDLIPKQPLEVHETVAECMILANHWVAKKIWESFPHQALLRQHPPPHQEFFSELRECAKAKGFFIDTRSNKTLADSLDNANDPHDPIVNRLLRSMATQAMSNALYFSTGSCAEEEFHHYGLALDKYTHFTSPIRRYSDIVVHRLLMAAISKDKKMEIKGNLFSNKDLEELCRHINNRNQAAQHSQKQSTELFQCMYFKDKDPATEERCISDGVIYSIRTNGVLLFIPRFGIKGAAYLKNKDGLVISCGPDSCSEWKPGSLQRFQNKITSTTTDGESVTFHLFDHVTVRISIQASRCHSDTIRLEIISNKPYKIPNTELIHQSSPLLKSELVKEVTKSVEEAQLAQEVKVNIIQEEYQEYRQTKGRSLYTLLEEIRDLALLDVSNNYGI”, the protein production result was “failed”.
On to “SIAILVIMHGESTASSMVNVANTLLDCNHAVAINMGLEDRVQDILVQAVEIANKIDKGKGILILTDMGSILTFAKVIRDATGKEVKAIDMVSTPIVIEATRKALTPEMTLEKLYFNIIESIKKHYGDMEVTYAEK”, for which the protein production entry was “failed”.
Next, “MDRKKVMVRHSIASLVALGIFGGSRFLYNVIIGRKYGVETLGYTNSIISQAFFVAGFLAFFSVGLGKFTSEFLGKGEYNRIKKLTGISFTFPFLGLILIPLNFHVALLSVLRAIQLTFRSFIYGLHKGELYAYSVILAFPFFLLGFLDGPLLPYYLLLGTIGIFSLSYLVSRSLIGLPGREDTKALIGFSTWAFLGTIAGIFLLQAPYFLTEKLAGNIEAGIVSVALSTAFLLSYLPQILQSAIVPLYAYDYAKGDDKAIKELAENSTLLLSLFSSLLVFGLIFAKSFVEVLFNIKMGAELLLALIGVELYIAYNPLINLLTATKFVKKSAIFSLIGAMVSGIFWILLIPRLGAIGTLLGLTLGYAIIFALVLWESKRKFNINAKILKPTLLAIPLQLLSLKFPYTILIYLITEIKDIEKVMAFLRDIRS”: “failed”; “MIEEQGRVVATEPGAVWVETVRRSTCSSCSANAGCGQGLMQRLGVGAGRARVRALSDLSLRVGDAVVLGIHEDLLLRASVLFYLFPLLGFFVAALLATRAGLVEPLIIVSGLAGLLAAWLLVRRHARRHADDPASQPVVLRALISGPSDSA”: “failed”; “MSLTGRAFAIPLRTRFRGITVREGMLVRGAAGWGEFSPFAEYGPRECARWWAACYEAAELGWPAPVRDTVPVNATVPAVGPEEAARIVASSGCTTAKVKVAERGQSEANDVARVEAVRDALGPRGRVRIDVNGAWDVDTAVRMIRLLDRFELEYVEQPCATVDELAEVRRRVSVPIAADESIRRAEDPLRVRDAEAADVVVLKVQPLGGVRAALRLAEECGLPVVVSSAVETSVGLAAGVALAAALPELPYACGLATLRLLHADVCDDPLLPVHGVLPVRRVDVSEQRLAEVEIDPAAWQARLAAARAAWEQVEREPGPEGHHHHHH”: “not failed”.
For the sequence “MRFKFLRGKLNHPIKCVCDNLSMDNQIMSTELYSQILEVIALVPFGKVATYGQIARLAGLPKHARLVGYTLKNIDQASDIPWHRIINAQGKVSTYHLNQIGENIQLNKLRDEGIVVLNGKINLKKYQWLVSQS”, the protein production entry is listed as “failed”.
Under “MNFISDQVKKLSSSTPEEPDHNKPVEGTETATRPATNAELMASAKVVAEAAQAAARNESDKLDKGKVAGASADILDAAEKYGKFDEKSSTGQYLDKAEKYLNDYESSHSTGAGGPPPPTSQAEPASQPEPAAKKDDEESGGGLGGYAKMAQGFLK” stands “failed”; under “IKATYETFSSPNGHGEGRGYLVMPQKKTIKSPTVLVIHENRGLNPYIKDVARRLAKDGFIAFAPDALYPLGGYPGNDDEGRAMQKEMDRAKIEQDFIAAAKFIKQHEHGNGKLGAVGFCFGGYVVNMLAAVMPNELDAGVPFYGTPAAEEIQKQVKGPLMLHFAGLDKRVNDTWPSYEQQLIASGAKYQALMYENVNHGFHNDSTARYAPEEAALAWERTLAFFKEHL”, “failed”; under “MCLKNNAKDEIMDSTKAWYQSRTIWGALIAVFAPLFSIAGFDLPAGLHGELAEGLVTVAGGIGGLIALYGRLSATRSIR”, “failed”.
Under “MTPAARLSAAIGILDRILGGTPAEQALTNWGRASRFAGSGDRAAVRDLVFDALRCRRSFARAGGAETGRGLVLGGLRMAGQEVGDLFTGEGHAPAPPAGSELKPQAPAELEALDCPDWLAPALRDSLGADFAPVMEALRHRAPVFLRVNLARTDRAAAAAELAAEGIVTQPHPLAETALEVTENPRRLQASAAYREGRVELQDAASQAIVAALPLAPGDRVLDYCAGGGGKSLAMAARAPIDLSAHDADPRRMRDLPERAARAGVKVRRLAPGDPARRGPFDLVLADVPCSGSGSWRRAPEGKWSLTPERLAELRAIQSTILDEVAPLVRPGGHLAYATCSLLASENAGQTEAFLERTSGWTRVHQLRLTPLDGGDGFFLDLLQRNG” stands “failed”; under “MSKPPPKPVKPGQVKVFRALYTFEPRTPDELYFEEGDIIYITDMSDTSWWKGTCKGRTGLIPSNYVAEQAESIDNPLHEAAKRGNLSWLRECLDNRVGVNGLDKAGSTALYWACHGGHKDIVEVLFTQPNVELNQQNKLGDTALHAAAWKGYADIVQLLLAKGARTDLRNNEKKLALDMATNAACASLLKKKQQGTDGARTLSNAEDYLDDEDSD”, “failed”.
Take “MECDRNVEKMSQVILLFFIYSFIGWLWETVYCSLKAKKFVYRGFLVGPYCPIYGFGVLSVLYFVEPFENNLLVLYVGSAVLVTILEYVTSYGLEKLFHASWWDYHDVPFNLNGRVALPVSLFWGLGCVLIVKVIQPEIAKVVSFLQATFGNYLALCIVIVMGLDLIYTLLNMQGFKKLITEMGQTLETNQQEFKQRLNTKMEIATADWQKLKERTKKEHFQNRLNFQQRRFINNYPKLTLKNIKNSKEVRHLLEDLKKKGQ”: the protein production result is on record as “failed”.

These data come from a protein production outcome set (Wang et al. 2014).
